Assay results: PMC12062136

Molecular target: mCherry^N-gp418^N chimeric protein

In the case of gp418^C-mCherry^C chimeric protein, the concurrent in situ splicing in a four-strain E. coli co-culture: mCherry fluorescence (580 nm excitation-610 nm emission) of the purified protein mixture is reported as 35000 a.u.
